{
  "source": "paper PMC8152475",
  "about": "(Biomedicines, 2021)",
  "molecules": {"B1": {"name": "fluorescently labelled MPT64 (natural protein)", "chain": "APKTYCEELKGTDTGQACQIQMSDPAYNINISLPSYYPDQKSLENYIAQTRDKFLSAATSSTPREAPYELNITSATYQSAIPPRGTQAVVLKVYQNAGGTHPTTTYKAFDWDQAYRKPITYDTLWQADTDPLPVVFPIVQGELSKQTGQQVSIAPNAGLDPVNYQNFAVTNDGVIFFFNPGELLPEAAGPTQVLVPRSAIDSMLA"}, "B2": {"name": "rMPT64: recombinant MPT64, produced in a bacterially expressed system as MPT63 (protein)", "chain": "APKTYCEELKGTDTGQACQIQMSDPAYNINISLPSYYPDQKSLENYIAQTRDKFLSAATSSTPREAPYELNITSATYQSAIPPRGTQAVVLKVYQNAGGTHPTTTYKAFDWDQAYRKPITYDTLWQADTDPLPVVFPIVQGELSKQTGQQVSIAPNAGLDPVNYQNFAVTNDGVIFFFNPGELLPEAAGPTQVLVPRSAIDSMLA"}, "B3": {"name": "fluorescently labelled MPT63 (natural protein)", "chain": "AYPITGKLGSELTMTDTVGQVVLGWKVSDLKSSTAVIPGYPVAGQVWEATATVNAIRGSVTPAVSQFNARTADGINYRVLWQAAGPDTISGATIPQGEQSTGKIYFDVTGPSPTIVAMNNGMEDLLIWEP"}, "B4": {"name": "MPT63: secretory immunodominant antigen of MTB (protein)", "chain": "AYPITGKLGSELTMTDTVGQVVLGWKVSDLKSSTAVIPGYPVAGQVWEATATVNAIRGSVTPAVSQFNARTADGINYRVLWQAAGPDTISGATIPQGEQSTGKIYFDVTGPSPTIVAMNNGMEDLLIWEP"}, "B5": {"name": "rMPT63: recombinant MPT63, purified using a 6x His bacterially expressed system (protein)", "chain": "AYPITGKLGSELTMTDTVGQVVLGWKVSDLKSSTAVIPGYPVAGQVWEATATVNAIRGSVTPAVSQFNARTADGINYRVLWQAAGPDTISGATIPQGEQSTGKIYFDVTGPSPTIVAMNNGMEDLLIWEP"}},
  "key": {"[1]": {"target": "T1, unlabeled recombinant TBK1 (UniProt Q9UHD2 1-729)", "T1 sequence (looked up)": "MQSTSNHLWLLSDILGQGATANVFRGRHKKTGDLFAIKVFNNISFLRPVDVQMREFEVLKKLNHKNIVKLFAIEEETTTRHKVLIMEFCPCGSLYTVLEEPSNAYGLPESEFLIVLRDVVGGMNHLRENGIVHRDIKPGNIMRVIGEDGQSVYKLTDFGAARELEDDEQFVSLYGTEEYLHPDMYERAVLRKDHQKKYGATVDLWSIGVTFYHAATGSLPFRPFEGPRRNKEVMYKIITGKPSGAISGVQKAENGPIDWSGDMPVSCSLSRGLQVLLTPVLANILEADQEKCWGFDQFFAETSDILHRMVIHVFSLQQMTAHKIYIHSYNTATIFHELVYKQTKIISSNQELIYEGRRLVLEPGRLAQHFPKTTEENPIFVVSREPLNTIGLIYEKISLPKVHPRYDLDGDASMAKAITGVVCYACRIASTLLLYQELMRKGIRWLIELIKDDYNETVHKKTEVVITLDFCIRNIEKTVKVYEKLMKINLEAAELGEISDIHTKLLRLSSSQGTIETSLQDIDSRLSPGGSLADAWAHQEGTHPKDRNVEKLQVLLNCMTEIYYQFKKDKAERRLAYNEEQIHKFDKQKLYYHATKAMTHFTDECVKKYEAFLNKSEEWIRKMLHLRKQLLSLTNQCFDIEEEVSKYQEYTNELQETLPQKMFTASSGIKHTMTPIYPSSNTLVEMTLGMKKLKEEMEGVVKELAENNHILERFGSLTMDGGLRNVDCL", "assay": "other fluorescence titration", "details": "both partners purified"}, "[2]": {"target": "T2, unlabeled recombinant HK2 (UniProt P52789 1-917)", "T2 sequence (looked up)": "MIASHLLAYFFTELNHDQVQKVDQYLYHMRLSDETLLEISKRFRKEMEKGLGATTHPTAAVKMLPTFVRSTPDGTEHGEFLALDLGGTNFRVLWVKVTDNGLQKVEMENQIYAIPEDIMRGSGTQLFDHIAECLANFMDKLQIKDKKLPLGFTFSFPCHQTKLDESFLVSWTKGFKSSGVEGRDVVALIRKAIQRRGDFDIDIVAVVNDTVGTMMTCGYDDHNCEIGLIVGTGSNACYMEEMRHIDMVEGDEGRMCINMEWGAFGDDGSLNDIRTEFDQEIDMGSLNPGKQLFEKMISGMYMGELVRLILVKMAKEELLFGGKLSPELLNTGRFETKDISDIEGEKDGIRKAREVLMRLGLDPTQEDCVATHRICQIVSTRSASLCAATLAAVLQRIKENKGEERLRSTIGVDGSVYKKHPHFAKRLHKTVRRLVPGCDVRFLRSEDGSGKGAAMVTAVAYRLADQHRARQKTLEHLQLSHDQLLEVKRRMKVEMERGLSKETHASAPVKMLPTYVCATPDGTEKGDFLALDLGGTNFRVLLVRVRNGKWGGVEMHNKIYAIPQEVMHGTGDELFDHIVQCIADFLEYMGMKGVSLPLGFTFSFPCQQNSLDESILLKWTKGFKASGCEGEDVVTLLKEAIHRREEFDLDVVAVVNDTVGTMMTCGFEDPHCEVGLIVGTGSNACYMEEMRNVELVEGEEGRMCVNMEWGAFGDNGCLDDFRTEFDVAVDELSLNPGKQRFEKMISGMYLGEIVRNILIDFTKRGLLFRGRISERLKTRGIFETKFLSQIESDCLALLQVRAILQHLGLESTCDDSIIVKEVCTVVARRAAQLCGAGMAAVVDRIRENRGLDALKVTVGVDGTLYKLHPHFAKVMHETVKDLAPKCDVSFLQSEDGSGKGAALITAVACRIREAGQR", "assay": "other fluorescence titration", "details": "both partners purified"}, "[3]": {"test_system": "host proteins in THP-1 macrophage cell lysates", "assay": "Co-immunoprecipitation from THP-1 cell lysates with mass spectrometry identification of binding partners", "parameters": "species or system human"}, "TBK1 [4]": {"test_system": "TBK1", "assay": "Endogenous co-immunoprecipitation with TBK1 in THP-1 cells", "format": "binding, human", "details": "5 μg mL^−1, IP with αHis-agarose bead", "method": "(§1) Figure 1 TBK1 and p47phox is bound with MPT63. (A) Identification of TBK1 and p47phox by mass spectrometry analysis in THP-1 cell lysates treated with rMPT63 or rVector. (B) THP-1 cells were stimulated with rMPT63 (5 μg mL^−1) for the indicated times, followed by immunoprecipitation (IP) with αHis-agarose bead and IB with αTBK1, αP-TBK1 (S172), αp47phox, αP-p47phox (S304, 345, 359, and 370), αHis, αActin. […] (E,G) Binding mapping. Schematic diagrams of the structures of MPT63 (upper). At 48 h after transfection with mammalian glutathione S-transferase (GST) or GST-MPT63 and truncated mutant constructs together with Flag-TBK1 or V5-p47phox. 293T cells were used for GST pull down, followed by IB with αFlag or αV5. Cell lysates (WCLs) were used for IB with αFlag or αV5, αGST, and αActin. […]\n(§2) Antibody binding was visualized by chemiluminescence (ECL; Millipore) and detected by a Vilber chemiluminescence analyzer (Fusion SL 3; Vilber Lourmat).\n(§3) Confocal fluorescence microscopy\n(§4) Immunofluorescence analysis was performed as described previously (Koh et al, 2017). […] TRAF6 or His was detected using a 1/100 dilution of the primary Ab for 1 h at 25 °C. […]\n(§5) Cell viability relative to non-treated group was measured by MTT assay, as […]"}, "[5]": {"target": "T3, unlabeled recombinant p47phox (UniProt P14598 1-390)", "T3 sequence (looked up)": "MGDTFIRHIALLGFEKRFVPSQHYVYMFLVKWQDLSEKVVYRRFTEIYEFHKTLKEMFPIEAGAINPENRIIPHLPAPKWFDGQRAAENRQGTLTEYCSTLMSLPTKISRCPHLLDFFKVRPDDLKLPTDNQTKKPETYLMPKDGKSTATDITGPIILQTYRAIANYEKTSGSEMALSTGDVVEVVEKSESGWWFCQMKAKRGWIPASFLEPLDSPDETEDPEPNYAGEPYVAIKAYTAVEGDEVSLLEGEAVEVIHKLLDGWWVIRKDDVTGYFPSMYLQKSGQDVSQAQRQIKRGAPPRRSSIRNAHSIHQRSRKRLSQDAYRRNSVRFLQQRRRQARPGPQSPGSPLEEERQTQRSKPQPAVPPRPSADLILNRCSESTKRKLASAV", "assay": "other fluorescence titration", "details": "both partners purified"}, "Th1 cell": {"test_system": "Th1 cell", "details": "MPT63 and its epitope; ref [44]; cited from earlier work"}, "macrophages": {"test_system": "macrophages", "details": "conformational switch dependent on the pH of the host; ref [8]; cited from earlier work"}, "p47phox [6]": {"test_system": "p47phox", "format": "binding"}, "[7]": {"test_system": "murine peritoneal macrophages", "details": "TNF-α and IL-6 secretion, ref [9]; cited from earlier work"}, "TBK1 [8]": {"target": "T4, TBK1 (Homo sapiens, UniProt Q9UHD2)", "T4 sequence (Q9UHD2 1-729)": "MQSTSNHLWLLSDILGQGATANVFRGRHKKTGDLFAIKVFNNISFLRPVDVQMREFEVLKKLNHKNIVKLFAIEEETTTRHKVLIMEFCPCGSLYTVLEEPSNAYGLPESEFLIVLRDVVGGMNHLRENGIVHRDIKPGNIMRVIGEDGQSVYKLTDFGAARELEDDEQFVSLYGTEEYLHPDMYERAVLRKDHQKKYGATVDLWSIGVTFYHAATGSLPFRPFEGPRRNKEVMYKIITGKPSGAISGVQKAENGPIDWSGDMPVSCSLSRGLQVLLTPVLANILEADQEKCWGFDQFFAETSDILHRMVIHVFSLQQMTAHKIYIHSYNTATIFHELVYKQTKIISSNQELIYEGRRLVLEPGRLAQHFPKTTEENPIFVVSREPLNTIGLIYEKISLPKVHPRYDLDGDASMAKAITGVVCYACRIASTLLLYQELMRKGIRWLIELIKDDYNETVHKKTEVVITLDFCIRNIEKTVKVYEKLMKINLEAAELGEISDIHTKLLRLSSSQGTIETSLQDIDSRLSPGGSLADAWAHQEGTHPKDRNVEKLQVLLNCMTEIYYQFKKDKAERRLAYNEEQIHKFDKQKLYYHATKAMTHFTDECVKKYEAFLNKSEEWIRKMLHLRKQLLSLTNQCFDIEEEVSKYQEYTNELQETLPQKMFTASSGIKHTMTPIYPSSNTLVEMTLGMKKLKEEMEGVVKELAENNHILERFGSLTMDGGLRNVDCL", "format": "binding"}, "[9]": {"test_system": "HLA-DR, an MHC class II cell surface receptor", "details": "MPT63 and its epitope; ref [44]; cited from earlier work"}, "p47phox [10]": {"test_system": "p47phox", "assay": "Endogenous co-immunoprecipitation with p47phox in THP-1 cells", "format": "binding, human", "details": "rMPT63 5 μg mL^−1, IP with αHis-agarose bead", "method": "as §1, §2, §3, §4, §5"}},
  "data": [
    {"molecule": "B1", "values": [
      {"measurement": "Kd", "setting": "[1]", "value": 193, "unit": "nM"},
      {"measurement": "Kd", "setting": "[2]", "value": 134, "unit": "nM"}
    ]},
    {"molecule": "B2", "values": [
      {"measurement": "binding partners identified by mass spectrometry", "setting": "[3]", "value": "interacted with several host proteins, including hexokinase 2 (HK2, 102K), TBK1 (83K), protein kinase Cα (PKCα, 76K), TNF receptor associated factor 6 (TRAF6, 60K), and p38MAPK (38K)"},
      {"measurement": "endogenous interaction with TBK1 and phosphorylated form", "setting": "TBK1 [4]", "value": "phosphorylated TBK1 (S172) also interacted with rMPT64"}
    ]},
    {"molecule": "B3", "values": [
      {"measurement": "Kd", "setting": "[1]", "value": 178, "unit": "nM"},
      {"measurement": "Kd", "setting": "[5]", "value": 345, "unit": "nM"}
    ]},
    {"molecule": "B4", "values": [
      {"measurement": "Th1 cell reactivity", "setting": "Th1 cell", "value": "induce a moderate Th1 cell reactivity"},
      {"measurement": "macrophage cell death", "setting": "macrophages", "value": "induced cell death of macrophages"},
      {"measurement": "region of MPT63 binding p47phox", "setting": "p47phox [6]", "value": "The C-terminal of MPT63 was associated with p47phox, particularly the 150–159 amino acids in the C-terminal domain of MPT63 were important for binding with p47phox. Additionally, E152, D153, and E158 in MPT63 were key amino acids"},
      {"measurement": "phagocytic activity", "setting": "[7]", "value": "enhanced the phagocytic activity by upregulating the secretion of TNF-α and IL-6"},
      {"measurement": "region of MPT protein binding TBK1", "setting": "TBK1 [8]", "value": "the N-terminal of MPT63 bound with TBK1 and 48–56 peptide was essential for the interaction between MPT63 and TBK1. Specifically, 50–56 amino acids, except G53, seemed to be fundamental for binding"},
      {"measurement": "binding to HLA-DR", "setting": "[9]", "value": "bind promiscuously to HLA-DR"}
    ]},
    {"molecule": "B5", "values": [
      {"measurement": "binding partners identified by mass spectrometry", "setting": "[3]", "value": "included TANK-binding kinase (TBK1, 83K), receptor-interacting serine/threonine-protein kinase 1 (RIP1, 75K), RAC-alpha serine/threonine-protein kinase (AKT, 55K), Neutrophil cytosol factor 1 (p47phox, 45K), and p38 mitogen-activated protein kinase (p38MAPK, 38K)"},
      {"measurement": "endogenous interaction with TBK1 and phosphorylated form", "setting": "TBK1 [4]", "value": "interacted with TBK1 and p47phox and, interestingly, with their phosphorylated forms as well"},
      {"measurement": "endogenous interaction with p47phox and phosphorylated forms", "setting": "p47phox [10]", "value": "interacted with TBK1 and p47phox and, interestingly, with their phosphorylated forms as well (S345 and S359)"}
    ]}
  ]
}
